In experiment [1] the target is myosin subfragment-1 (S1) from rabbit skeletal muscle (rabbit).
Experiment [2] has the same target. The source holds these as a separate data set.

This note sets out measurements from PMC5757175.

For “central domain of Mus musculus UNC-45B (domain or fragment)”, in experiment [1], the apparent Kd of the inhibition of actin filament gliding velocity (myosin S1 fixed on nitrocellulose-coated coverslips, central domain titrated in the assay buffer; 2.2 uM halted gliding) was found to be 400 nM.

B1: full-length Mus musculus UNC-45B (natural protein)
chain: MAEAEAAQLKEEGNRHFQLQDYKAATKSYSQALKLTKDKALLATLYRNRAACGLKMESYAQAASDASRAIDINSADIKALYRRCQALEHLGKLDQAFKDVQRCATLEPRNQNFQETLRRLNTSIQEQLRVQFSTDSRVQTMFEILLNENSEADKREKAANNLIVLGREEAGAERIFQSNGVALLLQLMNTQRPELLLAAVRTLSGMCSGHRARATAILHAVRIDRICSLMALENEEMSLAVCNLLQAIIDSLSGEDKREHRGKEEALVLDTKKDLKQITSHLLDMLVSKKVSGQGRDQALNLLNKNVPRKDLSIHDNSRTIYVVDNGLRKILKVVGQVPDLPSCLPLTDNTRMLASILINKLYDDLRCDPERDHFRKICEEYITSKFDPQDMDKNVNAIQTVSGILQGPFDLGNQLLGMKGVMEMMVALCGSEREADQLVAVEALIHASTKLSRATFIITNGVTLLKQIYKTTKNEKIKIRTLVGLCKLGSAGGSDYGLRQFAEGSTEKLAKQCRKWLCNTAIDTRTRRWAVEGLAYLTLDADVKDDFVQDIPALQAMFELAKARTSDKTILYSVANTLVNCTNSYDVKEVVPELVQLAKFSKQHVPEEHPKDKKDFVDLRVKRLLKAGVISALACMVKADSAILTDQTKELLARVFLALCDNPKDRGTIVAQGGGKALIPLALEGTDVGKVKAAHGLAKIAAVSNPDIAFPGERVYEVVRPLVSLLDTQRDGLQNYEALLGLTNLSGRSDKLRQKIFKEKALPDIENYMFENHDQLRQAATECMCNMVLNKEVQERFLADGNDRLKLVVLLCGEDDHKLQNAAAGALAMLTAAHKKLCLKMTEVTTQWLEILQRLCLHDQLSVQHRGLVIAHNLLSADAELARKLVESELLEILTVVGKQEPDEKRAAVVQTARECLIKCMDYGFIKPVS
B1: the apparent Kd of the inhibition of actin filament gliding velocity (myosin S1 fixed on nitrocellulose-coated coverslips, UNC-45B titrated in the assay buffer; 2.8 uM inhibited translocation completely) in experiment [2] worked out at 200 nM.
